The source of these data is patent US20150355179.

Where two headings read alike, the source gives them in different places.

Data set [1] concerns GST-CDKACTH1 labelled with Cy3 (CDKACTH1-Cy3).
Data set [2] deals with T1, GST-CDKACTH1 labelled with Cy3 (CDKACTH1-Cy3).
T1 chain: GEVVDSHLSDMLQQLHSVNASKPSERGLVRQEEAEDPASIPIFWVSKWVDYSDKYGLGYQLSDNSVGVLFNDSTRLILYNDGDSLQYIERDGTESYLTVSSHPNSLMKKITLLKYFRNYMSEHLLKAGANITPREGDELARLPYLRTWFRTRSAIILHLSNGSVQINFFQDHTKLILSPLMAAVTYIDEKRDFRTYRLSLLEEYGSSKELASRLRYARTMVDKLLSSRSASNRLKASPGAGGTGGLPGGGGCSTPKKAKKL

B1: recombinant CDK4/Cyclin D (enzyme, part only; not given: Cyclin D partner)
chain: MATSRYEPVAEIGVGAYGTVYKARDPHSGHFVALKSVRVPNGGGGGGGLPISTVREVALLRRLEAFEHPNVVRLMDVCATSRTDREIKVTLVFEHVDQDLRTYLDKAPPPGLPAETIKDLMRQFLRGLDFLHANCIVHRDLKPENILVTSGGTVKLADFGLARIYSYQMALTPVVVTLWYRAPEVLLQSTYATPVDMWSVGCIFAEMFRRKPLFCGNSEADQLGKIFDLIGLPPEDDWPRDVSLPRGAFPPRGPRPVQSVVPEMEESGAQLLLEMLTFNPHKRISAFRALQHSYLHKDEGNPE
Take B1: the “real-time fluorescence kinase assay (Cy3 fluorescence)” value in data set [1] is recorded as “CDK4/Cyclin D kinase induced changes in CDKACTH1 fluorescence reminiscent of CDK2/Cyclin A”.

B2: Plk3 kinase (protein)
chain: MEPAAGFLSPRPFQRAAAAPAPPAGPGPPPSALRGPELEMLAGLPTSDPGRLITDPRSGRTYLKGRLLGKGGFARCYEATDTETGSAYAVKVIPQSRVAKPHQREKILNEIELHRDLQHRHIVRFSHHFEDADNIYIFLELCSRKSLAHIWKARHTLLEPEVRYYLRQILSGLKYLHQRGILHRDLKLGNFFITENMELKVGDFGLAARLEPPEQRKKTICGTPNYVAPEVLLRQGHGPEADVWSLGCVMYTLLCGSPPFETADLKETYRCIKQVHYTLPASLSLPARQLLAAILRASPRDRPSIDQILRHDFFTKGYTPDRLPISSCVTVPDLTPPNPARSLFAKVTKSLFGRKKKSKNHAQERDEVSGLVSGLMRTSVGHQDARPEAPAASGPAPVSLVETAPEDSSPRGTLASSGDGFEEGLTVATVVESALCALRNCIAFMPPAEQNPAPLAQPEPLVWVSKWVDYSNKFGFGYQLSSRRVAVLFNDGTHMALSANRKTVHYNPTSTKHFSFSVGAVPRALQPQLGILRYFASYMEQHLMKGGDLPSVEEVEVPAPPLLLQWVKTDQALLMLFSDGTVQVNFYGDHTKLILSGWEPLLVTFVARNRSACTYLASHLRQLGCSPDLRQRLRYALRLLRDRSPA
With B2, the “real-time fluorescence kinase assay (Cy3 fluorescence)” value in data set [2] is on record as “Plk1 or Plk3 did not induce any significant changes in the fluorescence of CDKACTH1, in the same range of concentrations”.
